# Molecular target: Mycobacterium thermoresistibile (Mth) Class Ib ribonucleotide reductase catalytic α-subunit (NrdE), purified alone (M. thermoresistibile)
# Assay: SEC-MALS
substance,measurement,value
"Mycobacterium thermoresistibile (Mth) Class Ib ribonucleotide reductase catalytic α-subunit (NrdE), purified alone (enzyme)",stoichiometry N,2

# From doi:10.64898/2025.12.21.695763
